# Results as given in patent US20230257453A1 (published 2023).
# Read-outs that look alike come from different tables or passages of the source.
# Key:
# Test in all cases: ELISA
# [1] = biological target: T1, denatured human collagen I (UniProt P02452 162-1218; P08123 80-1119)
# [2] = biological target: T2, denatured human collagen type IV (UniProt P02462 173-1669; P08572 184-1712)
# [3] = biological target: T1, denatured human collagen I; remark: listed apart in the source
# [4] = biological target: T2, denatured human collagen type IV; remark: listed apart in the source
# T1 sequence (P02452 162-1218 A1075T, chain 1 of 2): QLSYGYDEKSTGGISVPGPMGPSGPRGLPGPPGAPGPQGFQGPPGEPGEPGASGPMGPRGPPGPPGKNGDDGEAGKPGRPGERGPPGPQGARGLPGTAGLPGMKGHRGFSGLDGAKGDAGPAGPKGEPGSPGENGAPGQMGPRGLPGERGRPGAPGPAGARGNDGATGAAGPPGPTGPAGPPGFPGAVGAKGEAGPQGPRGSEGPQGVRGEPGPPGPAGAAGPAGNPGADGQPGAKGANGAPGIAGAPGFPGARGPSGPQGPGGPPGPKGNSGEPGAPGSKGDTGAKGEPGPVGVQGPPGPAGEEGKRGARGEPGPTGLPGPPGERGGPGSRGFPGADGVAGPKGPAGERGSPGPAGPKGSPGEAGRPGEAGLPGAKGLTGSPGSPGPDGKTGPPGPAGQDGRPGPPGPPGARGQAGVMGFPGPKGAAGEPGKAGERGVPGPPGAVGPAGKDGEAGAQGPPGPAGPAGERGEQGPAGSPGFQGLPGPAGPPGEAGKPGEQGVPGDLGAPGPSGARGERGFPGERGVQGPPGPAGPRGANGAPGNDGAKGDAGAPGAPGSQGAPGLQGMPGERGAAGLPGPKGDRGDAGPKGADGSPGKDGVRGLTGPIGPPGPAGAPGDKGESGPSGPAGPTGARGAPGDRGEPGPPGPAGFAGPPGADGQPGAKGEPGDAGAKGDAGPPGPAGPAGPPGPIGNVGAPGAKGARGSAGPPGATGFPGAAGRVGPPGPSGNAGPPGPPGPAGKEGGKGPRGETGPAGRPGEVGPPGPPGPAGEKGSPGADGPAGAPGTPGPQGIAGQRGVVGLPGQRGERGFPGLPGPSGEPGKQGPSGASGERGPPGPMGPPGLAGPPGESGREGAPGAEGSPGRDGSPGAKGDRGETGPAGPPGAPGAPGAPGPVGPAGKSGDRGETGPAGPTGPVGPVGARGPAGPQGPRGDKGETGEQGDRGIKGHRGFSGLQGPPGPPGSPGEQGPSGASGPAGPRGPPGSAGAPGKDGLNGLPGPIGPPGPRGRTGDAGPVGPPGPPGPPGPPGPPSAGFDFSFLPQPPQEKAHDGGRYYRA
# T1 sequence (P08123 80-1119, chain 2 of 2): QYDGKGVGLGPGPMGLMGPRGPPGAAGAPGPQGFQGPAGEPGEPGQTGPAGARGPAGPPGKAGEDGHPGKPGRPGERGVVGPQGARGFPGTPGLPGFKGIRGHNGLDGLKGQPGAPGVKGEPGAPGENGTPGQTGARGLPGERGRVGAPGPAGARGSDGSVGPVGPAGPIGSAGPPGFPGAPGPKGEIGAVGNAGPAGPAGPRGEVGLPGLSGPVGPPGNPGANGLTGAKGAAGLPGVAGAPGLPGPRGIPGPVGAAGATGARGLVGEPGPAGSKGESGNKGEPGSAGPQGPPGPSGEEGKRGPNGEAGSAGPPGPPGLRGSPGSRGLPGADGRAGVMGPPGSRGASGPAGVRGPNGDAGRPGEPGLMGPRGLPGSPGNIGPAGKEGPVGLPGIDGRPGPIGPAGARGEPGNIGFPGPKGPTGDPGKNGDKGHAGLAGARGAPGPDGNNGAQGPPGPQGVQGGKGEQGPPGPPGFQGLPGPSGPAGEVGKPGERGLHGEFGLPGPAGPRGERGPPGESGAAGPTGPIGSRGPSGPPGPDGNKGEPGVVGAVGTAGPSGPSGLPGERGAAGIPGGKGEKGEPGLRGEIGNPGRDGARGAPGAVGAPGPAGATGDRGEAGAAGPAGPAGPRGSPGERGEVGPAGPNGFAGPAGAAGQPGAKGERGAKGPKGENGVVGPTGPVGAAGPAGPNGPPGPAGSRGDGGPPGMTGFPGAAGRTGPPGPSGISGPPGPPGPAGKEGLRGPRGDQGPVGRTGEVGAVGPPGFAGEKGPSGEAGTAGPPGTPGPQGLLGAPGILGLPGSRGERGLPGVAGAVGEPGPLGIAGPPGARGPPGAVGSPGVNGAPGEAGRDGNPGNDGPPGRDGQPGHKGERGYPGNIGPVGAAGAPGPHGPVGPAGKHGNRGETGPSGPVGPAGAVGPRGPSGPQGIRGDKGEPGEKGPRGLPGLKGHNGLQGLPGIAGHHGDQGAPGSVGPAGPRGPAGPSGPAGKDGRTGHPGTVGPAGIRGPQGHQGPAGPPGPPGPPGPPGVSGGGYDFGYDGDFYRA
# T2 sequence (P02462 173-1669, chain 1 of 2): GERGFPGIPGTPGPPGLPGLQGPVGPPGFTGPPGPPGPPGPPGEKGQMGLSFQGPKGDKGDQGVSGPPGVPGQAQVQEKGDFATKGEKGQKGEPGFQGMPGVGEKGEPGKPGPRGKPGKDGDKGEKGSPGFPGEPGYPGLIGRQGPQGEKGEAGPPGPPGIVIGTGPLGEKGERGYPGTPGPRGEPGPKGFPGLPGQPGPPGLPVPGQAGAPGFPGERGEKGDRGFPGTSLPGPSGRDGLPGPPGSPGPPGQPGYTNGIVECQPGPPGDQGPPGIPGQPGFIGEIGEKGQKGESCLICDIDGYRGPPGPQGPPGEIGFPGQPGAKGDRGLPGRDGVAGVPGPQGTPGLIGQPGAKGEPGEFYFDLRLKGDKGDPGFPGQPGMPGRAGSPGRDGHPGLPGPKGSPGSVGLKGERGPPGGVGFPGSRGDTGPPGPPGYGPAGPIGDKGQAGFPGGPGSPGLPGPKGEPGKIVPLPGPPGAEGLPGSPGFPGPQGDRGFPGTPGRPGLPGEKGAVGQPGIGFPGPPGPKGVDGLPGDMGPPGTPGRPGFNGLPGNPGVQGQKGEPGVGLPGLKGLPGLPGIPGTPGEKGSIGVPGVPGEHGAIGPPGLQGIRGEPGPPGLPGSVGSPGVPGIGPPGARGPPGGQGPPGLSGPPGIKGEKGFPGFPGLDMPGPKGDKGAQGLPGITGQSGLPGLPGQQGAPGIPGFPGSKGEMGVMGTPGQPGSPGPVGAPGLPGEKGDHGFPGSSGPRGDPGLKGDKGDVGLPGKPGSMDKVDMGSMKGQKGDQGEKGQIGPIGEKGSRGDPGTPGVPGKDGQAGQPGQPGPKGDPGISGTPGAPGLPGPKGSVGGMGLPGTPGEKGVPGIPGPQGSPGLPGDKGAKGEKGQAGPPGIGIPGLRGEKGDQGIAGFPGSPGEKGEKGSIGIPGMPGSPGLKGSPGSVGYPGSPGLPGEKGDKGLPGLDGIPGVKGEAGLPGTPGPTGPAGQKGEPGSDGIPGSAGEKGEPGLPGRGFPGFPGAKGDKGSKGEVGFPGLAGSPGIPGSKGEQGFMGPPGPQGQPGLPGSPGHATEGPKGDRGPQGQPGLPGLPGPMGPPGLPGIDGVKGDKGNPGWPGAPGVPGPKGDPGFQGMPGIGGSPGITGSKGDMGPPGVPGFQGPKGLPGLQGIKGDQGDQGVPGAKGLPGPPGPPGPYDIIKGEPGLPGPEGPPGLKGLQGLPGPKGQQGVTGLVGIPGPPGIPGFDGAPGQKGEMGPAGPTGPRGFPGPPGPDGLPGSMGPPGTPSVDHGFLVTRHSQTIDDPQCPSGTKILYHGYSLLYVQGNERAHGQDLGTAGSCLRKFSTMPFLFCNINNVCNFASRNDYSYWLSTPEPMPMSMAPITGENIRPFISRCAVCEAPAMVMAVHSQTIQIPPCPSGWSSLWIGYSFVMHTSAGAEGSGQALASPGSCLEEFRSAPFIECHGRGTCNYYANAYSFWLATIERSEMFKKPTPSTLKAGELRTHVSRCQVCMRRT
# T2 sequence (P08572 184-1712, chain 2 of 2): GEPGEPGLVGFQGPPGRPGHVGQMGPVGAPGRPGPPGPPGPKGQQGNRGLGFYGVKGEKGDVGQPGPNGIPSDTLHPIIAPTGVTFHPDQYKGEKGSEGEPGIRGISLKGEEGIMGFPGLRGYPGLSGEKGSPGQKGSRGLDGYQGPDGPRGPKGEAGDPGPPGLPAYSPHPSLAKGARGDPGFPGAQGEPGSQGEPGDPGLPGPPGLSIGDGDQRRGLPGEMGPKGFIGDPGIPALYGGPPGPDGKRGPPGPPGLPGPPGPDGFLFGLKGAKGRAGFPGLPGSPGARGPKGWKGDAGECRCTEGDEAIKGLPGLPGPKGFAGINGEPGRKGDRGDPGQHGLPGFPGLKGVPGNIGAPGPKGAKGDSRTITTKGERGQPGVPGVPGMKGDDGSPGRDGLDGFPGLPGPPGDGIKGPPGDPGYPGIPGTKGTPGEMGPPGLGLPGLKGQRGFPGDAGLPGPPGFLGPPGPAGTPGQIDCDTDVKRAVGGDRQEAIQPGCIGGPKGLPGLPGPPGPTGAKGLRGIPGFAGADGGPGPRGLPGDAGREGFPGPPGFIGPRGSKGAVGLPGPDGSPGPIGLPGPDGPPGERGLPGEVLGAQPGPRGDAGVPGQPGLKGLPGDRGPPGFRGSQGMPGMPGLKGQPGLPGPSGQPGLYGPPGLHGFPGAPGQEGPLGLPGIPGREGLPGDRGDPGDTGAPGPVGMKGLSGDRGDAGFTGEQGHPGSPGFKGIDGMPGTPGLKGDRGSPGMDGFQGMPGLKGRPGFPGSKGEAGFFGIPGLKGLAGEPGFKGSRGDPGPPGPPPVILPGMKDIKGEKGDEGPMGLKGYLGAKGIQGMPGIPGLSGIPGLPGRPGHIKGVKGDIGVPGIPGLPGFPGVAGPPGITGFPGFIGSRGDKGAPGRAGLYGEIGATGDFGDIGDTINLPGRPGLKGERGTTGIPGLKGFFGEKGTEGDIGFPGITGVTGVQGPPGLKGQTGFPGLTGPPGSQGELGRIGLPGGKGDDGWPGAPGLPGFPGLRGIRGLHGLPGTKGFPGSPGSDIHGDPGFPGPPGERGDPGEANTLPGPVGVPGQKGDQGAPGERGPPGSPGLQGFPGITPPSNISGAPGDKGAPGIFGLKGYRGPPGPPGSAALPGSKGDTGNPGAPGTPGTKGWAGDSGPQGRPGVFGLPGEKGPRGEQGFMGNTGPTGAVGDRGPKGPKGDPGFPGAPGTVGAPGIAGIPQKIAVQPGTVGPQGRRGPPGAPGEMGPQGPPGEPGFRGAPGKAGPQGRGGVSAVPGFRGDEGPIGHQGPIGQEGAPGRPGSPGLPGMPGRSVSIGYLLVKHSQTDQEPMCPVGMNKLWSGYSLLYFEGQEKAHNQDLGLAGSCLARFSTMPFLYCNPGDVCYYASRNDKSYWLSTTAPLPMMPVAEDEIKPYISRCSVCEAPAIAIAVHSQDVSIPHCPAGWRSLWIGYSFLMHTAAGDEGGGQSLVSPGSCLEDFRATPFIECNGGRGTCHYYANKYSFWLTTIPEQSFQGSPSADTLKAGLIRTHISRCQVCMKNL
Binder,EC50 [1],EC50 [2],EC50 [3],EC50 [4]
"P27542716 (antibody, V domains shown) VH: EVQLVESGGGLVQPGGSLRLSCAASGFSLSTPGMGVWWVRQAPGKGLEWVADIWWDDNKYTNPSLKSRFTISRDNAKNSLYLQMNSLRAEDTAVYYCARRANYGNPYYAQDYWGQGTTVTVSS VL: DIVMTQTPLSLPVTPGEPASISCRSSQSIVSSWGNTYLEWYLQKPGQSPQLLIYKVSNRFSGVPDRFSGSGSGTDFTLKISRVEAEDVGVYYCFQGSHVPWTFGQGTKVEIKR",14.8 nM,6.37 nM,,
"P27522716 (antibody, V domains shown) VH: EVQLVESGGGLVQPGGSLRLSCAASGFSFSTPGMGVWWVRQAPGKGLEWVADIWWDDNKYTNPSLKSRFTISRDNAKNSLYLQMNSLRAEDTAVYYCARRANYGNPYYAQDYWGQGTTVTVSS VL: DIVMTQTPLSLPVTPGEPASISCRSSQSIVSSWGNTYLEWYLQKPGQSPQLLIYKVSNRFSGVPDRFSGSGSGTDFTLKISRVEAEDVGVYYCFQGSHVPWTFGQGTKVEIKR",22.1 nM,16.1 nM,,
"P27532716 (antibody, V domains shown) VH: EVQLVESGGGLVQPGGSLRLSCAASGFTLSTPGMGVWWVRQAPGKGLEWVADIWWDDNKYTNPSLKSRFTISRDNAKNSLYLQMNSLRAEDTAVYYCARRANYGNPYYAQDYWGQGTTVTVSS VL: DIVMTQTPLSLPVTPGEPASISCRSSQSIVSSWGNTYLEWYLQKPGQSPQLLIYKVSNRFSGVPDRFSGSGSGTDFTLKISRVEAEDVGVYYCFQGSHVPWTFGQGTKVEIKR",18.3 nM,9.01 nM,,
"P27122797 (antibody, V domains shown) VH: QVTLKESGPALVKPTQTLTLTCTFSGFSLSTSGMGVGWIRQPPGKALEWLADIWWDDNKYANPSLKSRLTISKDTSKNQVVLTMTNMDPVDTATYYCARRANYGNPYYAQDYWGQGTTVTVSS VL: DIVMTQTPLSLPVTPGEPASISCRSSQSIVHSSGNTYLEWYLQKPGQSPQLLIYKVSNRFSGVPDRFSGSGSGTDFTLKISRVEAEDVGVYYCFQGSHVPWTFGQGTKVEIKR",8570 nM,32.6 nM,,
P27122798 (antibody) chain 1: not shown chain 2: DIVMTQTPLSLPVTPGEPASISCRSSQSIVHSNANTYLEWYLQKPGQSPQLLIYKVSNRFSGVPDRFSGSGSGTDFTLKISRVEAEDVGVYYCFQGSHVPWTFGQGTKVEIKRTVAAPSVFIFPPSDEQLKSGTASVVCLLNNFYPREAKVQWKVDNALQSGNSQESVTEQDSKDSTYSLSSTLTLSKADYEKHKVYACEVTHQGLSSPVTKSFNRGEC,27.2 nM,10.8 nM,,
P27202716 (antibody) chain 1: not shown chain 2: DIVMTQTPLSLPVTPGEPASISCRSSQSIVSSWGNTYLEWYLQKPGQSPQLLIYKVSNRFSGVPDRFSGSGSGTDFTLKISRVEAEDVGVYYCFQGSHVPWTFGQGTKVEIKRTVAAPSVFIFPPSDEQLKSGTASVVCLLNNFYPREAKVQWKVDNALQSGNSQESVTEQDSKDSTYSLSSTLTLSKADYEKHKVYACEVTHQGLSSPVTKSFNRGEC,,,,3.34 nM
P27202714 (antibody) chain 1: not shown chain 2: DIVMTQTPLSLPVTPGEPASISCRSSQSIVHSQGNTYLEWYLQKPGQSPQLLIYKVSNRFSGVPDRFSGSGSGTDFTLKISRVEAEDVGVYYCFQGSHVPWTFGQGTKVEIKRTVAAPSVFIFPPSDEQLKSGTASVVCLLNNFYPREAKVQWKVDNALQSGNSQESVTEQDSKDSTYSLSSTLTLSKADYEKHKVYACEVTHQGLSSPVTKSFNRGEC,,,,30.4 nM
P27152797 (antibody) chain 1: not shown chain 2: DIVMTQTPLSLPVTPGEPASISCRSSQSIVHSSGNTYLEWYLQKPGQSPQLLIYKVSNRFSGVPDRFSGSGSGTDFTLKISRVEAEDVGVYYCFQGSHVPWTFGQGTKVEIKRTVAAPSVFIFPPSDEQLKSGTASVVCLLNNFYPREAKVQWKVDNALQSGNSQESVTEQDSKDSTYSLSSTLTLSKADYEKHKVYACEVTHQGLSSPVTKSFNRGEC,26 nM,9.3 nM,,
P27202713 (antibody) chain 1: not shown chain 2: DIVMTQTPLSLPVTPGEPASISCRSSQSIVHSNGNTYLEWYLQKPGQSPQLLIYKVSNRFSGVPDRFSGSGSGTDFTLKISRVEAEDVGVYYCFQGSHVPWTFGQGTKVEIKRTVAAPSVFIFPPSDEQLKSGTASVVCLLNNFYPREAKVQWKVDNALQSGNSQESVTEQDSKDSTYSLSSTLTLSKADYEKHKVYACEVTHQGLSSPVTKSFNRGEC,,,,7.41 nM

# Second part, the binder after the results:
EC50 [1],EC50 [2],EC50 [3],EC50 [4],Binder
36.2 nM,12 nM,,,"P27562716 (antibody, V domains shown) VH: EVQLVESGGGLVQPGGSLRLSCAASGFTFSTPGMGVWWVRQAPGKGLEWLADIWWDDNKYTNPSLKSRFTISRDNAKNSLYLQMNSLRAEDTAVYYCARRANYGNPYYAQDYWGQGTTVTVSS VL: DIVMTQTPLSLPVTPGEPASISCRSSQSIVSSWGNTYLEWYLQKPGQSPQLLIYKVSNRFSGVPDRFSGSGSGTDFTLKISRVEAEDVGVYYCFQGSHVPWTFGQGTKVEIKR"
36.6 nM,12.2 nM,,,"P27552716 (antibody, V domains shown) VH: EVQLVESGGGLVQPGGSLRLSCAASGFTFSTPGMGVWWIRQAPGKGLEWVADIWWDDNKYTNPSLKSRFTISRDNAKNSLYLQMNSLRAEDTAVYYCARRANYGNPYYAQDYWGQGTTVTVSS VL: DIVMTQTPLSLPVTPGEPASISCRSSQSIVSSWGNTYLEWYLQKPGQSPQLLIYKVSNRFSGVPDRFSGSGSGTDFTLKISRVEAEDVGVYYCFQGSHVPWTFGQGTKVEIKR"
,9.91 nM,11.9 nM,,"P27652716 (antibody, V domains shown) VH: QVTLKESGPALVKPTQTLTLTCTFSGFSLSTPGMGVWWIRQPPGEGLEWLADIWWDDNKYTNPSLKSRLTISKDTSKNQVVLTMTNMDPVDTATYYCARRANYGNPYYAQDYWGQGTTVTVSS VL: DIVMTQTPLSLPVTPGEPASISCRSSQSIVSSWGNTYLEWYLQKPGQSPQLLIYKVSNRFSGVPDRFSGSGSGTDFTLKISRVEAEDVGVYYCFQGSHVPWTFGQGTKVEIKR"
20800 nM,18.8 nM,,,"P27572716 (antibody, V domains shown) VH: EVQLVESGGGLVQPGGSLRLSCAASGFTFSTPGMGVWWVRQAPGKGLEWVADIWWDDNKYTNPSLKSRLTISRDNAKNSLYLQMNSLRAEDTAVYYCARRANYGNPYYAQDYWGQGTTVTVSS VL: DIVMTQTPLSLPVTPGEPASISCRSSQSIVSSWGNTYLEWYLQKPGQSPQLLIYKVSNRFSGVPDRFSGSGSGTDFTLKISRVEAEDVGVYYCFQGSHVPWTFGQGTKVEIKR"
,4.01 nM,3.73 nM,,P27622716 (antibody) chain 1: not shown chain 2: DIVMTQTPLSLPVTPGEPASISCRSSQSIVSSWGNTYLEWYLQKPGQSPQLLIYKVSNRFSGVPDRFSGSGSGTDFTLKISRVEAEDVGVYYCFQGSHVPWTFGQGTKVEIKRTVAAPSVFIFPPSDEQLKSGTASVVCLLNNFYPREAKVQWKVDNALQSGNSQESVTEQDSKDSTYSLSSTLTLSKADYEKHKVYACEVTHQGLSSPVTKSFNRGEC
,,,57.4 nM,P27902713 (antibody) chain 1: not shown chain 2: DIVMTQTPLSLPVTPGEPASISCRSSQSIVHSNGNTYLEWYLQKPGQSPQLLIYKVSNRFSGVPDRFSGSGSGTDFTLKISRVEAEDVGVYYCFQGSHVPWTFGQGTKVEIKRTVAAPSVFIFPPSDEQLKSGTASVVCLLNNFYPREAKVQWKVDNALQSGNSQESVTEQDSKDSTYSLSSTLTLSKADYEKHKVYACEVTHQGLSSPVTKSFNRGEC
,,,2.63 nM,P28612716 (antibody) chain 1: not shown chain 2: DIVMTQTPLSLPVTPGEPASISCRSSQSIVSSWGNTYLEWYLQKPGQSPQLLIYKVSNRFSGVPDRFSGSGSGTDFTLKISRVEAEDVGVYYCFQGSHVPWTFGQGTKVEIKRTVAAPSVFIFPPSDEQLKSGTASVVCLLNNFYPREAKVQWKVDNALQSGNSQESVTEQDSKDSTYSLSSTLTLSKADYEKHKVYACEVTHQGLSSPVTKSFNRGEC
,,,4.97 nM,P27912716 (antibody) chain 1: not shown chain 2: DIVMTQTPLSLPVTPGEPASISCRSSQSIVSSWGNTYLEWYLQKPGQSPQLLIYKVSNRFSGVPDRFSGSGSGTDFTLKISRVEAEDVGVYYCFQGSHVPWTFGQGTKVEIKRTVAAPSVFIFPPSDEQLKSGTASVVCLLNNFYPREAKVQWKVDNALQSGNSQESVTEQDSKDSTYSLSSTLTLSKADYEKHKVYACEVTHQGLSSPVTKSFNRGEC
,,,4.5 nM,P27922716 (antibody) chain 1: not shown chain 2: DIVMTQTPLSLPVTPGEPASISCRSSQSIVSSWGNTYLEWYLQKPGQSPQLLIYKVSNRFSGVPDRFSGSGSGTDFTLKISRVEAEDVGVYYCFQGSHVPWTFGQGTKVEIKRTVAAPSVFIFPPSDEQLKSGTASVVCLLNNFYPREAKVQWKVDNALQSGNSQESVTEQDSKDSTYSLSSTLTLSKADYEKHKVYACEVTHQGLSSPVTKSFNRGEC
,,,6.48 nM,P27962797 (antibody) chain 1: not shown chain 2: DIVMTQTPLSLPVTPGEPASISCRSSQSIVHSSGNTYLEWYLQKPGQSPQLLIYKVSNRFSGVPDRFSGSGSGTDFTLKISRVEAEDVGVYYCFQGSHVPWTFGQGTKVEIKRTVAAPSVFIFPPSDEQLKSGTASVVCLLNNFYPREAKVQWKVDNALQSGNSQESVTEQDSKDSTYSLSSTLTLSKADYEKHKVYACEVTHQGLSSPVTKSFNRGEC
,,,2.53 nM,P27962798 (antibody) chain 1: not shown chain 2: DIVMTQTPLSLPVTPGEPASISCRSSQSIVHSNANTYLEWYLQKPGQSPQLLIYKVSNRFSGVPDRFSGSGSGTDFTLKISRVEAEDVGVYYCFQGSHVPWTFGQGTKVEIKRTVAAPSVFIFPPSDEQLKSGTASVVCLLNNFYPREAKVQWKVDNALQSGNSQESVTEQDSKDSTYSLSSTLTLSKADYEKHKVYACEVTHQGLSSPVTKSFNRGEC
,,,18.4 nM,P27952798 (antibody) chain 1: not shown chain 2: DIVMTQTPLSLPVTPGEPASISCRSSQSIVHSNANTYLEWYLQKPGQSPQLLIYKVSNRFSGVPDRFSGSGSGTDFTLKISRVEAEDVGVYYCFQGSHVPWTFGQGTKVEIKRTVAAPSVFIFPPSDEQLKSGTASVVCLLNNFYPREAKVQWKVDNALQSGNSQESVTEQDSKDSTYSLSSTLTLSKADYEKHKVYACEVTHQGLSSPVTKSFNRGEC
